Like-named read-outs stand apart in the source and are kept apart here. Bridges are numbered along the chain shown (N, C = ends). Where no end group is shown, it is not given here.
Key:
[1] = target: T1, sEGFR-MMB (dimeric soluble EGFR ectodomain mimetibody) (human); assay: phage ELISA on coated sEGFR-MMB; second bar with EGF 10 ug/ml as competitor
T1 construct: also called sEGFR mimetibody; sEGFR-Fc

biotinylated sEGFR-MMB = target: T2, biotinylated sEGFR-MMB (human, biotinylated with sulfo-NHS-LC-biotin (sites not given)); assay: phage ELISA, biotinylated receptor captured on streptavidin
T2 construct: Captured on streptavidin-coated wells in the ELISA; also called b-sEGFR-MMB; b-sEGFR MMB

biotinylated sEGFR-His6 = target: T3, biotinylated sEGFR-His6 (human, UniProt P00533 25-645, biotinylated (sites not given)); assay: as above
T3 construct: Captured on streptavidin-coated wells in the ELISA; also called b-sEGFR-His; b-sEGFR-His6

b-sEGFR-strep = target: T4, b-sEGFR-strep (human, UniProt P00533, biotinylated, sites not given); assay: as above
T4 construct: soluble ectodomain, monomeric, strep II tag; captured on streptavidin-coated wells; also called strepII-tagged sEGFR; strep II-tagged sEGFR purchased from Research Diagnostics

[2] = target: T1, sEGFR-MMB (dimeric soluble EGFR …); assay: phage ELISA on coated sEGFR-MMB, chemiluminescence; background typically <200 units
Streptavidin = target: T5, Streptavidin; assay: phage ELISA on streptavidin alone [C]
T5 construct: also called Streptavidin alone; SA

Control-MMB (CNTO 360) = target: T6, Control-MMB (CNTO 360) (Homo sapiens (Human), UniProt P0DOX5 111-449 = IgG part); assay: phage ELISA on coated Control-MMB [A]
T6 construct: Described as human IgG1 heavy chain dimer absent the variable and most of the CH1 domains; also called blank mimetibody scaffold protein

[3] = target: T1, sEGFR-MMB (dimeric soluble EGFR …); assay: phage ELISA, coated sEGFR-MMB
[4] = target: T7, Human extracellular EGFR-His6 (sEGFR-His6) (human, UniProt P00533 25-645); assay: phage ELISA, coated sEGFR-His6
T7 construct: Monomeric, expressed in HEK293E, glycosylated; also called sEGFR-6×His; monomeric sEGFR

[5] = target: T1, sEGFR-MMB (dimeric soluble EGFR …); assay: phage ELISA on coated sEGFR-MMB, chemiluminescence; background typically <200 units; remark: listed apart in the source

T2 sequence (chain, as listed by the source limits assumed): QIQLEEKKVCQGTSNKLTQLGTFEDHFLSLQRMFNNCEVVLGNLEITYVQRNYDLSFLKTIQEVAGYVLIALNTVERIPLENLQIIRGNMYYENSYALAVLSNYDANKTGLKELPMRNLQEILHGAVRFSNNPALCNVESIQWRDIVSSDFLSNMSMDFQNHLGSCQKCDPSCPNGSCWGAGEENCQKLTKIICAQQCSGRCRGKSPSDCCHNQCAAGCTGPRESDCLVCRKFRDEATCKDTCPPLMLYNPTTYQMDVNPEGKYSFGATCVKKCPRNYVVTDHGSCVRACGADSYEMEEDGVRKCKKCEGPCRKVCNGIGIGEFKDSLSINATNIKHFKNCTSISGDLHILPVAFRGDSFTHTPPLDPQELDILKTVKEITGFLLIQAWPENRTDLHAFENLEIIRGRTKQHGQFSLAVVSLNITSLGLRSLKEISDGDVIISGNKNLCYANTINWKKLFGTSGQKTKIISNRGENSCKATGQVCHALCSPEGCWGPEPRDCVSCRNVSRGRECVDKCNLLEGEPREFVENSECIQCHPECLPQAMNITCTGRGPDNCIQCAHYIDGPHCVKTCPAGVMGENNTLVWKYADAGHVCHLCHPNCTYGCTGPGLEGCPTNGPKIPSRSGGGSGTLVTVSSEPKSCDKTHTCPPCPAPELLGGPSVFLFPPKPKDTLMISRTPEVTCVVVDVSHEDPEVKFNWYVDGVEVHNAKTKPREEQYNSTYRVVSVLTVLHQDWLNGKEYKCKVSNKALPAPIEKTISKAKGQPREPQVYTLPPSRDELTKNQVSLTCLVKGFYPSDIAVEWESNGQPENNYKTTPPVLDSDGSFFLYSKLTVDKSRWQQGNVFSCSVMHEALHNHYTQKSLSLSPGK
T1 sequence (chain, as listed by the source limits assumed): as above

B1: phage P143 (pIII CNL5) (peptide)
chain: AGVLCSNFYHPLCHSGG
notes: Tested as whole phage displaying the peptide on pIII; also called PP143; not shown: M13 phage coat protein pIII, mature (TVESC...)
binding result [1]: binds
binding result (biotinylated sEGFR-MMB): binds
binding result (biotinylated sEGFR-His6): binds
binding result (b-sEGFR-strep): binds

B2: phage P145 (pIII CNL5) (peptide)
chain: AGVLCHRYYHPICYTGG
notes: Tested as whole phage displaying the peptide on pIII; also called PP145; PHPEP145; not shown: M13 phage coat protein pIII, mature (TVESC...)
binding result [1]: binds
binding result (biotinylated sEGFR-MMB): binds
binding result (biotinylated sEGFR-His6): binds
binding result (b-sEGFR-strep): binds

B3: phage P146 (pIII CNL5) (peptide)
chain: AGTLCRSFFHPLCYAGG
notes: Tested as whole phage displaying the peptide on pIII; also called PP146; PHPEP146; not shown: M13 phage coat protein pIII, mature (TVESC...)
binding result [1]: binds
binding result (biotinylated sEGFR-MMB): binds
binding result (biotinylated sEGFR-His6): binds
binding result (b-sEGFR-strep): binds

B4: phage P176 (pIX S20) (peptide)
chain: GGGKTCVSTTFDLWFVCFA
modifications: disulfide 6-17; also: displayed on whole phage via pIX
notes: Tested as whole phage, pIX phagemid display; also called PP176
ELISA signal [2]: 37400 units
binding result (Streptavidin): no binding
binding result (Control-MMB (CNTO 360)): no binding

B5: phage P193 (pIII CNL1-11) (peptide)
chain: AGSYYWGYTVDIRRGG
notes: Tested as whole phage displaying the peptide on pIII; also called PHPEP193; not shown: M13 phage coat protein pIII, mature (TVESC...)
binding result [3]: binds

B6: phage P194 (pIII CNL1-11) (peptide)
chain: AGSECFPLAPDWLSCILGG
notes: Tested as whole phage displaying the peptide on pIII; also called PHPEP194; not shown: M13 phage coat protein pIII, mature (TVESC...)
binding result [4]: binds
binding result [3]: binds

B7: S20 library phage hit SEQ ID NO: 43 (peptide)
chain: GGGPTCDSATRRVLTICAD
notes: Tested as whole phage, pIX phagemid display
ELISA signal [2]: 5420 units

B8: S20 library phage hit SEQ ID NO: 44 (peptide)
chain: GGGWMCFLEGYGASLMCQC
notes: as for B7
ELISA signal [2]: 4800 units

B9: S20 library phage hit SEQ ID NO: 45 (peptide)
chain: GGGDSCCSFLTDGTVVCSL
notes: as for B7
ELISA signal [2]: 9540 units

B10: S20 library phage hit SEQ ID NO: 46 (peptide)
chain: GGGYICTPSDIDSWYICYL
notes: as for B7
ELISA signal [2]: 6620 units

B11: S20 library phage hit SEQ ID NO: 47 (peptide)
chain: GGGSVCVGTAFPGWMVCGP
notes: as for B7
ELISA signal [2]: 4770 units

B12: S20 library phage hit SEQ ID NO: 49 (peptide)
chain: GGGLLCATTSFRDWFVCFT
notes: as for B7
ELISA signal [2]: 4510 units

B13: phage P177 (pIX S16) (peptide)
peptide: GGGDACTMVFLWCSLGGGSGGSGG
modifications: disulfide 6-13
notes: Tested as whole phage, pIX phagemid display; also called PP177; not shown: M13 coat protein pIX (display carrier at the C end)
ELISA signal [5]: 8660 units

B14: phage P178 (pIX S17) (peptide)
peptide: GGGRWCYFWWITICELGGGSGGSGG
modifications: disulfide 6-14
notes: Tested as whole phage, pIX phagemid display; also called PP178; not shown: M13 coat protein pIX (display carrier at the C end)
ELISA signal [5]: 7910 units

From US20100151003A1 (Janssen / Centocor, published 2010)
